The target of the assay is T1, ARNO PB-domain (Homo sapiens, UniProt Q99418).
T1 construct: v) 379-400aa, polybasic (PB) domain; made in house; host or cells: E. coli BL21(DE3)
The experiment in a line: GST pull-down of in vitro translated a2N with ARNO PB-domain. The format is binding. The conditions noted are these: GST pull-down with GST- and His-tagged PB-domain construct. How it is done:
The purified recombinant GST-ARNO(wt) and GST-tagged ARNO domain constructs ([…]) were incubated with 10 μl of in vitro translated 6His-a2N recombinant protein at 4° C. for 2 hours in 500 μl of binding buffer (10 mM HEPES, 1 mM EDTA, 1 mM DTT, 100 mM NaCl, 10% glycerol, 0.1% NP-40) with gentle rotation. Then the interacting recombinant proteins were immobilized on glutathione beads by incubation with 50 μl of 50% glutathione Sepharose 4B slurry for 2 hours at 4° C. The beads were collected by centrifugation and washed 5 times with 500 μl ice-cold binding buffer. Interacting proteins were eluted by boiling in SDS-PAGE sample buffer for 10 min at 95° C., resolved by SDS-PAGE and analyzed by Western blotting using polyclonal anti-a2N antibodies. […]
To examine the ability of these well-defined and functionally distinct domains of ARNO to interact with a2N1-402, full-length ARNO(wt) and its four domains were cloned separately for bacterial expression of recombinant proteins (FIG. 3). […] Interacting proteins were detected by western blot analysis with a2-specific antibodies as described above.

T1 sequence (Q99418 379-400 limits assumed): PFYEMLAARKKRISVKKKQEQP

B1: a2N: recombinant N-terminal cytosolic tail, amino acid residues 1-402 of mouse V-ATPase a2-subunit (protein)
chain: MGSLFRSESMCLAQLFLQSGTAYECLSALGEKGLVQFRDLNQNVSSFQRKFVGEVKRCEELERILVYLVQEITRADIPLPEGEASPPAPPLKHVLEMQEQLQKLEVELREVTKNKEKLRKNLLELVEYTHMLRVTKTFLKRNVEFEPTYEEFPALENDSLLDYSCMQRLGAKLGFVSGLIQQGRVEAFERMLWRACKGYTIVTYAELDECLEDPETGEVIKWYVFLISFWGEQIGHKVKKICDCYHCHIYPYPNTAEERREIQEGLNTRIQDLYTVLHKTEDYLRQVLCKAAESVCSRVVQVRKMKAIYHMLNMCSFDVTNKCLIAEVWCPEVDLPGLRRALEEGSRESGATIPSFMNTIPTKETPPTLIRTNKFTEGFQNIVDAYGVGSYREVNPALFTII
modifications: left off: small tags and cut ends
notes: recombinant N-terminal cytosolic tail, amino acid residues 1-402 of mouse V-ATPase a2-subunit
Take B1: the “interaction of a2N with ARNO PB-domain” value is recorded as “no interaction”.

Values taken from patent US20140162285A1, “Methods of Modulating Vesicular Trafficking” (The General Hospital Corporation, priority 2009, published 2014).
